A word on the Kd: it is the equilibrium constant for the complex coming apart. A higher Kd goes with weaker binding.

Where “and” joins values, the source holds several entries; their conditions need not be identical. Equal values may be shown once.

The target of assay [1] is human IL-13 R130Q variant (R110Q of the mature chain) (human) (UniProt P35225). The experiment in a line: Biacore SPR, mAb from CHO. Background: Surface plasmon resonance follows binding to a sensor surface in real time, without labels.
The target is the same in assay [2]. The assay can be described thus: Biacore SPR, mAb from HEK293.
Assay [3] has the same target. The experiment in a line: IL-13Ra2 binding inhibition ELISA, crude supernatant.
The target is the same in assay [4]. The assay can be described thus: direct binding ELISA, crude supernatant, relative to Lc16Hc7. For orientation: ELISA stands for enzyme-linked immunosorbent assay.

B1: mAb Lc-2B03 + Hc2 M34S, M100L (antibody, human IgG1, V domains shown)
VH: QVTLKESGPVLVKPTETLTLTCTVSGFSLSTYGSGVGWIRQPPGKALEWLAHIWWDDVKRYNPALKSRLTISKDTSKSQVVLTMTNMDPVDTATYYCARLGSDYDVWFDYWGQGTLVTVSS
VL: EIVLTQSPATLSLSPGERATLSCRASKSISKYLAWYQQKPGQAPRLLIYSGSTLQSGIPARFSGSGSGTDFTLTISSLEPEDFAVYYCQQHDYPYTFGQGTKLEIKR
In the case of B1, the figures for the equilibrium dissociation constant (Kd) in assay [1] and in assay [2] were 0.0184 nM and 0.0014 nM, respectively.

B2: mAb Lc-2B03 + Hc2 M34E, M100L (antibody, human IgG1, V domains shown)
VH: QVTLKESGPVLVKPTETLTLTCTVSGFSLSTYGEGVGWIRQPPGKALEWLAHIWWDDVKRYNPALKSRLTISKDTSKSQVVLTMTNMDPVDTATYYCARLGSDYDVWFDYWGQGTLVTVSS
VL: EIVLTQSPATLSLSPGERATLSCRASKSISKYLAWYQQKPGQAPRLLIYSGSTLQSGIPARFSGSGSGTDFTLTISSLEPEDFAVYYCQQHDYPYTFGQGTKLEIKR
Regarding B2, in assay [2], the Kd was 0.0076 nM.

B3: mAb Lc-2B03 + Hc2 T31S, M34S, M100L, V106I (antibody, human IgG1, V domains shown)
VH: QVTLKESGPVLVKPTETLTLTCTVSGFSLSSYGSGVGWIRQPPGKALEWLAHIWWDDVKRYNPALKSRLTISKDTSKSQVVLTMTNMDPVDTATYYCARLGSDYDIWFDYWGQGTLVTVSS
VL: EIVLTQSPATLSLSPGERATLSCRASKSISKYLAWYQQKPGQAPRLLIYSGSTLQSGIPARFSGSGSGTDFTLTISSLEPEDFAVYYCQQHDYPYTFGQGTKLEIKR
With B3, the Kd was determined as 0.0211 nM in assay [1] and 0.0152 nM in assay [2].

B4: mAb Lc-2B03 + Hc2 M34S, M100L, V106I (antibody, human IgG1, V domains shown)
VH: QVTLKESGPVLVKPTETLTLTCTVSGFSLSTYGSGVGWIRQPPGKALEWLAHIWWDDVKRYNPALKSRLTISKDTSKSQVVLTMTNMDPVDTATYYCARLGSDYDIWFDYWGQGTLVTVSS
VL: EIVLTQSPATLSLSPGERATLSCRASKSISKYLAWYQQKPGQAPRLLIYSGSTLQSGIPARFSGSGSGTDFTLTISSLEPEDFAVYYCQQHDYPYTFGQGTKLEIKR
For B4, the Kd in assay [2] was 0.0205 nM and 0.0209 nM.

B5: mAb Lc-2B03 + Hc2 T31S, M34V, M100L (antibody, human IgG1, V domains shown)
VH: QVTLKESGPVLVKPTETLTLTCTVSGFSLSSYGVGVGWIRQPPGKALEWLAHIWWDDVKRYNPALKSRLTISKDTSKSQVVLTMTNMDPVDTATYYCARLGSDYDVWFDYWGQGTLVTVSS
VL: EIVLTQSPATLSLSPGERATLSCRASKSISKYLAWYQQKPGQAPRLLIYSGSTLQSGIPARFSGSGSGTDFTLTISSLEPEDFAVYYCQQHDYPYTFGQGTKLEIKR
In the case of B5, the Kd in assay [1] stood at 0.0058 nM; in assay [2], 0.0037 nM.

B6: mAb Lc-2B03 + Hc2 M34Q, M100L (antibody, human IgG1, V domains shown)
VH: QVTLKESGPVLVKPTETLTLTCTVSGFSLSTYGQGVGWIRQPPGKALEWLAHIWWDDVKRYNPALKSRLTISKDTSKSQVVLTMTNMDPVDTATYYCARLGSDYDVWFDYWGQGTLVTVSS
VL: EIVLTQSPATLSLSPGERATLSCRASKSISKYLAWYQQKPGQAPRLLIYSGSTLQSGIPARFSGSGSGTDFTLTISSLEPEDFAVYYCQQHDYPYTFGQGTKLEIKR
Turning to B6, the results for the equilibrium dissociation constant (Kd) in assay [1] and in assay [2] were 0.0251 nM and 0.0243 nM, respectively.

B7: mAb Lc-2B03 + Hc2 M34E, M100L, V106I (antibody, human IgG1, V domains shown)
VH: QVTLKESGPVLVKPTETLTLTCTVSGFSLSTYGEGVGWIRQPPGKALEWLAHIWWDDVKRYNPALKSRLTISKDTSKSQVVLTMTNMDPVDTATYYCARLGSDYDIWFDYWGQGTLVTVSS
VL: EIVLTQSPATLSLSPGERATLSCRASKSISKYLAWYQQKPGQAPRLLIYSGSTLQSGIPARFSGSGSGTDFTLTISSLEPEDFAVYYCQQHDYPYTFGQGTKLEIKR
In turn, B7 showed an equilibrium dissociation constant (Kd) in assay [2] of 0.0114 nM.

B8: Lc15Hc1 (antibody, human IgG1, V domains shown)
VH: QVTLKESGPALVKPTQTLTLTCTFSGFSLSTYGMGVGWIRQPPGKALEWLAHIWWDDVKRYNPALKSRLTISKDTSKNQVVLTMTNMDPVDTATYYCARMGSDYDVWFDYWGQGTLVTVSS
VL: VIWMTQSPSLLSASTGDRVTISCRASKSISKYLAWYQQKPGKAPELLIYSGSTLQSGVPSRFSGSGSGTDFTLTISCLQSEDFATYYCQQHNEYPYTFGGGTKVEIK
As for B8, the Percent Inhibition IL-13 R130Q (333 ng/ml) to Ra2 in assay [3] came to 44%. Also, the Percent IL-13 R130Q (30 ng/ml) Binding in assay [4] worked out at 76.2%.

B9: mAb Lc-2B03 + Hc2 M34V, M100L (antibody, human IgG1, V domains shown)
VH: QVTLKESGPVLVKPTETLTLTCTVSGFSLSTYGVGVGWIRQPPGKALEWLAHIWWDDVKRYNPALKSRLTISKDTSKSQVVLTMTNMDPVDTATYYCARLGSDYDVWFDYWGQGTLVTVSS
VL: EIVLTQSPATLSLSPGERATLSCRASKSISKYLAWYQQKPGQAPRLLIYSGSTLQSGIPARFSGSGSGTDFTLTISSLEPEDFAVYYCQQHDYPYTFGQGTKLEIKR
B9: the values for the Kd in assay [1] and in assay [2] were 0.019 nM and 0.0164 nM, respectively.

B10: Lc7Hc1 (antibody, human IgG1, V domains shown)
VL: DIQLTQSPSSLSASVGDRVTITCRASKSISKYLAWYRQKPGKVPKLLIYSGSTLQSGVPSRFSGSGSGTDFTLTISSLQPEDVATYYGQQHNEYPYTFGQGTKLEIK
VH: QVTLKESGPALVKPTQTLTLTCTFSGFSLSTYGMGVGWIRQPPGKALEWLAHIWWDDVKRYNPALKSRLTISKDTSKNQVVLTMTNMDPVDTATYYCARMGSDYDVWFDYWGQGTLVTVSS
B10 had a Percent Inhibition IL-13 R130Q (333 ng/ml) to Ra2 in assay [3] of 6%. The Percent IL-13 R130Q (30 ng/ml) Binding in assay [4] was -1.4%.

B11: mAb Lc-2B03 + Hc2 M34V, M100L, V106I (antibody, human IgG1, V domains shown)
VH: QVTLKESGPVLVKPTETLTLTCTVSGFSLSTYGVGVGWIRQPPGKALEWLAHIWWDDVKRYNPALKSRLTISKDTSKSQVVLTMTNMDPVDTATYYCARLGSDYDIWFDYWGQGTLVTVSS
VL: EIVLTQSPATLSLSPGERATLSCRASKSISKYLAWYQQKPGQAPRLLIYSGSTLQSGIPARFSGSGSGTDFTLTISSLEPEDFAVYYCQQHDYPYTFGQGTKLEIKR
In the case of B11, the dissociation constant Kd in assay [2] came out at 0.0252 nM.

B12: mAb Lc-2B03 + Hc2 T31S, M34S, M100L (antibody, human IgG1, V domains shown)
VH: QVTLKESGPVLVKPTETLTLTCTVSGFSLSSYGSGVGWIRQPPGKALEWLAHIWWDDVKRYNPALKSRLTISKDTSKSQVVLTMTNMDPVDTATYYCARLGSDYDVWFDYWGQGTLVTVSS
VL: EIVLTQSPATLSLSPGERATLSCRASKSISKYLAWYQQKPGQAPRLLIYSGSTLQSGIPARFSGSGSGTDFTLTISSLEPEDFAVYYCQQHDYPYTFGQGTKLEIKR
Regarding B12, the Kd in assay [1] worked out at 0.0101 nM; in assay [2] it was 0.0123 nM.

B13: Lc3Hc6 (antibody, human IgG1, V domains shown)
VH: QVQLVESGGGVVQPGRSLRLSCAASGFSLSTYGMGVGWVRQAPGKGLEWVAHIWWDDVKRYNPALKSRFTISRDNSKNTLYLQMNSLRAEDTAVYYCARMGSDYDVWFDYWGQGTLVTVSS
VL: AIQLTQSPSSLSASVGDRVTITCRASKSISKYLAWYQQKPGKAPKLLIYSGSTLQSGVPSRFSGSGSGTDFTLTISSLQPEDFATYYCQQHNEYPYTFGGGTKVEIK
Consider B13, for which, in assay [3], the Percent Inhibition IL-13 R130Q (333 ng/ml) to Ra2 stood at 14%. Moreover, in assay [4], the Percent IL-13 R130Q (30 ng/ml) Binding turned out to be 26.6%.

B14: Lc7Hc6 (antibody, human IgG1, V domains shown)
VL: DIQLTQSPSSLSASVGDRVTITCRASKSISKYLAWYRQKPGKVPKLLIYSGSTLQSGVPSRFSGSGSGTDFTLTISSLQPEDVATYYGQQHNEYPYTFGQGTKLEIK
VH: QVQLVESGGGVVQPGRSLRLSCAASGFSLSTYGMGVGWVRQAPGKGLEWVAHIWWDDVKRYNPALKSRFTISRDNSKNTLYLQMNSLRAEDTAVYYCARMGSDYDVWFDYWGQGTLVTVSS
For the molecule B14, the Percent Inhibition IL-13 R130Q (333 ng/ml) to Ra2 in assay [3] worked out at 4%. Further, the Percent IL-13 R130Q (30 ng/ml) Binding in assay [4] was -0.3%.

The record behind these values is patent US20100111959A1.
